# Source: patent US20250369970A1 (ACADEMIA SINICA, published 2025)
# B1: p30-091 IgG (antibody, V domains shown)
# VH: EVQLVESGGGLVQPGGSLRLSCAASGFTISDYWIHWVRQAPGKGLEWVAYINPHYGLTDYADSVKGRFTISADTSKNTAYLQMNSLRAEDTAVYYCARGWLLDYWGQGTLVTVSS
# VL: DIQMTQSPSSLSASVGDRVTITCKSNQNLLDSGDQGTYLNWYQQKPGKAPKLLISDVSNLYSGVPSRFSGSGSGTDFTLTISSLQPEDFATYYCYQATSFPFTFGQGTKVEIKR
# B2: p30-077 IgG (antibody, V domains shown)
# VH: EVQLVESGGGLVQPGGSLRLSCAASGFTIGDWGIHWVRQAPGKGLEWVAGIWPFGGFTFYADSVKGRFTISADTSKNTAYLQMNSLRAEDTAVYYCARGSFYWDYWGQGTLVTVSS
# VL: DIQMTQSPSSLSASVGDRVTITCRASQDVNNNVAWYQQKPGKAPKLLISSPTYLYSGVPSRFSGSGSGTDFTLTISSLQPEDFATYYCQQWYDWPITFGQGTKVEIKR
# B3: p30-052 IgG (antibody, V domains shown)
# VH: EVQLVESGGGLVQPGGSLRLSCAASGFTIDSGFIHWVRQAPGKGLEWVAGIGPFWGFTFYADSVKGRFTISADTSKNTAYLQMNSLRAEDTAVYYCARYGSSSYGFDYWGQGTLVTVSS
# VL: DIQMTQSPSSLSASVGDRVTITCRASQDVDNNVAWYQQKPGKAPKLLISSPGFLYSGVPSRFSGSGSGTDFTLTISSLQPEDFATYYCQQYFNFPITFGQGTKVEIKR
# B4: p30-090 IgG (antibody, V domains shown)
# VH: EVQLVESGGGLVQPGGSLRLSCAASGFTIDGGGIHWVRQAPGKGLEWVAGIWPSWGYTYYADSVKGRFTISADTSKNTAYLQMNSLRAEDTAVYYCARGFYWYDYWGQGTLVTVSS
# VL: DIQMTQSPSSLSASVGDRVTITCRASQDVNNDVAWYQQKPGKAPKLLIFYPGGLYSGVPSRFSGSGSGTDFTLTISSLQPEDFATYYCQQSWNYPLTFGQGTKVEIKR
# Target: recombinant p30 protein of ASFV (African swine fever virus (ASFV), UniProt P0C9Z3 1-181)
# Assay: ELISA, IgG titrated on immobilized recombinant p30
row,Binder,EC50
1,B1,2.6 ng/mL
2,B2,2.6 ng/mL
3,B3,2 ng/mL
4,B4,0.9 ng/mL
